Measurements published in publication PMC4963475 (2016).
Non-standard residues stand in square brackets, D forms with d. No end group written: not given here. pT = C[C@@H](OP(=O)(O)O)[C@H](N)C(=O)O; Nle = CCCC[C@H](N)C(=O)O

B1: MELT16p peptide, ENHKND-NIe-DI-Tp-QSC-NIe-VEIDY-amide (peptide)
peptide: ENHKND[Nle]DI[pT]QSC[Nle]VEIDY-NH2
modifications: N-terminus assumed
SMILES: CCCC[C@H](NC(=O)[C@H](CC(=O)O)NC(=O)[C@H](CC(N)=O)NC(=O)[C@H](CCCCN)NC(=O)[C@H](Cc1c[nH]cn1)NC(=O)[C@H](CC(N)=O)NC(=O)[C@@H](N)CCC(=O)O)C(=O)N[C@@H](CC(=O)O)C(=O)N[C@H](C(=O)N[C@H](C(=O)N[C@@H](CCC(N)=O)C(=O)N[C@@H](CO)C(=O)N[C@@H](CS)C(=O)N[C@@H](CCCC)C(=O)N[C@H](C(=O)N[C@@H](CCC(=O)O)C(=O)N[C@H](C(=O)N[C@@H](CC(=O)O)C(=O)N[C@@H](Cc1ccc(O)cc1)C(N)=O)[C@@H](C)CC)C(C)C)[C@@H](C)OP(=O)(O)O)[C@@H](C)CC
B2: MELT12 peptide (unphosphorylated), Btn-PEG2-C-PEG2-EDDKND-Nle-DI-T-KSYTIEIN-amide (peptide)
peptide: EDDKNDMDITKSYTIEIN
modifications: N-terminal Btn-PEG2-C-PEG2 (biotin, PEG2, cysteine, PEG2); Nle (norleucine) at position 7 of the letters, written here as M; C-terminal amide
B3: MELT12p peptide (MDIT phosphorylated), Btn-PEG2-C-PEG2-EDDKND-Nle-DI-Tp-KSYTIEIN-amide (peptide)
peptide: EDDKNDMDITKSYTIEIN
modifications: N-terminal Btn-PEG2-C-PEG2 (biotin, PEG2, cysteine, PEG2); Nle (norleucine) at position 7 of the letters, written here as M; phosphothreonine (Tp) at position 10 of the letters (MDIT); C-terminal amide

Legend:
[1] = molecular target: T1, BubR1/Bub3 complex (3×FLAG–BubR1 with untagged Bub3) (UniProt O60566 1-1050; O43684 1-328); test: MST
[2] = molecular target: Bub1(1–553)/Bub3 complex (3×FLAG–Bub1(1–553) with untagged Bub3) (UniProt O43683 1-553; O43684 1-328); test: MST
[3] = molecular target: T1, BubR1/Bub3 complex (3×FLAG–BubR1 with …); test: MST; 150 mM NaCl
[4] = molecular target: T1, BubR1/Bub3 complex (3×FLAG–BubR1 with …); test: MST; 0 mM NaCl
[5] = molecular target: T1, BubR1/Bub3 complex (3×FLAG–BubR1 with …); test: MST; 50 mM NaCl
[6] = molecular target: T1, BubR1/Bub3 complex (3×FLAG–BubR1 with …); test: MST; 200 mM NaCl

Bub1(1–553)/Bub3 complex (3×FLAG–Bub1(1–553) with untagged Bub3), sequence (O43683 1-553, chain 1 of 2): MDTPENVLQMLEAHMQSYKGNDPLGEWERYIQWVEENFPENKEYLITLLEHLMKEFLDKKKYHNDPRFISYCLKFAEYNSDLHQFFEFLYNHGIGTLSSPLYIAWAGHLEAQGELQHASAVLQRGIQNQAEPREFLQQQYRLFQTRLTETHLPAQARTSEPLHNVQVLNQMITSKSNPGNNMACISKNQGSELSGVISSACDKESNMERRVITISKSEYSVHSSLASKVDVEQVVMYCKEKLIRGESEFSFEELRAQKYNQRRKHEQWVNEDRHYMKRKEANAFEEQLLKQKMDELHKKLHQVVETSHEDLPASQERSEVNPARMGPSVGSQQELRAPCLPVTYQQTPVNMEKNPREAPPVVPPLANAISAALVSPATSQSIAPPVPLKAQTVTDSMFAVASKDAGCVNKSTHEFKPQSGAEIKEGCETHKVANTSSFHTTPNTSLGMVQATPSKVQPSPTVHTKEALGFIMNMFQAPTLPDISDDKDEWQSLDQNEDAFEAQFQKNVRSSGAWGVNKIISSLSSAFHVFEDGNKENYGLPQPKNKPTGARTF
Bub1(1–553)/Bub3 complex (3×FLAG–Bub1(1–553) with untagged Bub3), sequence (O43684 whole entry, chain 2 of 2): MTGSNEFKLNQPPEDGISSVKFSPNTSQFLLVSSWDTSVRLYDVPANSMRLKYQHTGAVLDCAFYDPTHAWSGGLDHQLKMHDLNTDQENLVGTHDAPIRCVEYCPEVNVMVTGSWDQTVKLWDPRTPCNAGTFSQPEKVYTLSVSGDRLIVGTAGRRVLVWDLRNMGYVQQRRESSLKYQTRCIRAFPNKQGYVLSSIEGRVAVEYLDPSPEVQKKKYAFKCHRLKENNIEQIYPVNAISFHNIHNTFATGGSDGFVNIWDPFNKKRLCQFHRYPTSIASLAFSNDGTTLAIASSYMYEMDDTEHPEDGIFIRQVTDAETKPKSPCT
T1 sequence (O60566 whole entry, chain 1 of 2): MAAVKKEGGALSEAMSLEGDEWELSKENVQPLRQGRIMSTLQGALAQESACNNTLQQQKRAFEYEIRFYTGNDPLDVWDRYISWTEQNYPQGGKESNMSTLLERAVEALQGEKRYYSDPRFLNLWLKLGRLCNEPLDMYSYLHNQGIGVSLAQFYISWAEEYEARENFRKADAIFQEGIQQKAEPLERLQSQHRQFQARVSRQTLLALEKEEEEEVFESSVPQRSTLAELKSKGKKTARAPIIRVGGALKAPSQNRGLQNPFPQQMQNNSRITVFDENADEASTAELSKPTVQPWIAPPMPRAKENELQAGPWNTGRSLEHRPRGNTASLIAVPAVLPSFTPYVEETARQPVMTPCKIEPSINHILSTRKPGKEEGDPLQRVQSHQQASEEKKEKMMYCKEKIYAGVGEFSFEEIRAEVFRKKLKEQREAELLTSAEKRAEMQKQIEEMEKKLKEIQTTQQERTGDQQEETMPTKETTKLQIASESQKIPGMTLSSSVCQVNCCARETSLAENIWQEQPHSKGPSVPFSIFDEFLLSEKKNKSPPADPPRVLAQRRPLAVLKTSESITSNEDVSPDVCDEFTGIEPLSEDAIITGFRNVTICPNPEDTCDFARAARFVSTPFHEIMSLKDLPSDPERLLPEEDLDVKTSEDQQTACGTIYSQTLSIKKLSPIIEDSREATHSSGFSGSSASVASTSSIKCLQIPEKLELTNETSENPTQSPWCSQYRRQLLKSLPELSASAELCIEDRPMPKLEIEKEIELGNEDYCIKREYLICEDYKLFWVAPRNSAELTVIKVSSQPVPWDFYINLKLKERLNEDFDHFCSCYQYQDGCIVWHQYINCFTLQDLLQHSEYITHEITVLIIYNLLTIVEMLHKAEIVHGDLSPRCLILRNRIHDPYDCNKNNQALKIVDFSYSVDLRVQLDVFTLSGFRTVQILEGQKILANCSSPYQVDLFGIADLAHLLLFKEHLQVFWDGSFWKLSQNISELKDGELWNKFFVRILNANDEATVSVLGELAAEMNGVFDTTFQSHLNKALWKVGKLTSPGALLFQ
T1 sequence (O43684 whole entry, chain 2 of 2): as the sequence (O43684 whole entry, chain 2 of 2) above

Row | Binder | Kd [1] [nM] | Kd [2] [nM] | Kd [3] [nM] | Kd [4] [nM] | Kd [5] [nM] | Kd [6] [nM]
1 | B1 | 286 | 757 |  |  |  | 
2 | B2 | > 195000 | > 379000 |  |  |  | 
3 | B3 | 258 | 579 | 379 | 82 | 259 | 936
